Experiments:
Assay in all cases: pull-down binding Z-score (relative to library population); higher = stronger binding
[1] = test system: TO-3-N3-2 (biotin conjugate); conditions: RNA library: Library-2
Summary of the method: (§1)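 Biotin-conjugated small molecule (100 pmol) on streptavidin beads was incubated with 1 μg of heat-folded Cy5- or Cy3-end-labelled RNA library in phosphate/NaCl/KCl buffer at 25 °C for 60 min. Following three washes, RNA was eluted with hot SDS and hybridised at 55.5 °C for 20 h to a DNA barcode microarray. The binding value is a Z-score computed from the library mean and standard deviation, after subtraction of beads without compound and averaging of barcoded replicate probes with the highest and lowest excluded.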

TO-N3 (biotin conjugate) = conditions: RNA library: Library-2
Summary of the method: as §1

[2] = test system: TO-N3-2 (biotin conjugate); conditions: RNA library: Library-2
Summary of the method: as §1

[3] = test system: TO-3-N3 (biotin conjugate); conditions: RNA library: Library-2
Summary of the method: as §1

[4] = test system: G-clamp-N3 (biotin conjugate); conditions: RNA library: Library-1 (pre-miRNA loops + repeats)
Summary of the method: as §1

Sequence: GGCUGCGUGCCACCCGGGCAGCU [hsa-mir-3194]
- pull-down binding Z-score [1]: -0.183
- pull-down binding Z-score (TO-N3 (biotin conjugate)): -0.112
- pull-down binding Z-score [2]: 0.701
- pull-down binding Z-score [3]: -0.341
- pull-down binding Z-score [4]: 1.93

Sequence: GUAUACUGAGCUUAUGUAUGCAUCUGCAUAC [hsa-mir-5591]
- pull-down binding Z-score [1]: 0.0113
- pull-down binding Z-score (TO-N3 (biotin conjugate)): 0.39
- pull-down binding Z-score [2]: 0.0714
- pull-down binding Z-score [3]: 0.357
- pull-down binding Z-score [4]: 0.344

Sequence: GGAAACUGAGACUUUGUAACUAUGUCUCAGUCUCA [hsa-mir-452]
- pull-down binding Z-score [1]: -0.296
- pull-down binding Z-score (TO-N3 (biotin conjugate)): -0.297
- pull-down binding Z-score [2]: -0.427
- pull-down binding Z-score [3]: -0.179
- pull-down binding Z-score [4]: -0.74

Sequence: CAAGGAAGAGUCACAGUCUCUUCCUUG [hsa-mir-659]
- pull-down binding Z-score [1]: -0.285
- pull-down binding Z-score (TO-N3 (biotin conjugate)): -0.699
- pull-down binding Z-score [2]: -0.539
- pull-down binding Z-score [3]: -0.474
- pull-down binding Z-score [4]: -0.00418

Sequence: UGUCUUGUAGCCAGGAUAUUGUUUUAAAGAA [hsa-mir-4668]
- pull-down binding Z-score [1]: 0.00983
- pull-down binding Z-score (TO-N3 (biotin conjugate)): -0.338
- pull-down binding Z-score [2]: -0.355
- pull-down binding Z-score [3]: -0.404
- pull-down binding Z-score [4]: -0.739

Sequence: CGGUGGUCCCUCCCG [hsa-mir-3687-1_3687-2]
- pull-down binding Z-score [1]: -0.108
- pull-down binding Z-score (TO-N3 (biotin conjugate)): 0.14
- pull-down binding Z-score [2]: 0.832
- pull-down binding Z-score [3]: 0.0703
- pull-down binding Z-score [4]: -0.273

Sequence: AGCUGUUGGCCAUGGCGACAACACCU [hsa-mir-6742]
- pull-down binding Z-score [1]: -0.322
- pull-down binding Z-score (TO-N3 (biotin conjugate)): -0.246
- pull-down binding Z-score [2]: 0.561
- pull-down binding Z-score [3]: -0.508
- pull-down binding Z-score [4]: 0.213

Sequence: ACAUGAAAAUAAAAUGUAAAUUAUUUUAUUUCUAUCA [hsa-mir-3671]
- pull-down binding Z-score [1]: 0.294
- pull-down binding Z-score (TO-N3 (biotin conjugate)): 0.652
- pull-down binding Z-score [2]: -0.163
- pull-down binding Z-score [3]: 0.665
- pull-down binding Z-score [4]: -0.346

Sequence: UCUAUCUGUAUUCUUACUGAAGGGA [hsa-mir-504]
- pull-down binding Z-score [1]: -0.42
- pull-down binding Z-score (TO-N3 (biotin conjugate)): -0.937
- pull-down binding Z-score [2]: -0.728
- pull-down binding Z-score [3]: -0.739
- pull-down binding Z-score [4]: 0.763

Sequence: GGCAGGUGUGGUUGGAGGAAGCAGCCUGAACCUGCC [hsa-mir-6778]
- pull-down binding Z-score [1]: 0.333
- pull-down binding Z-score (TO-N3 (biotin conjugate)): 0.227
- pull-down binding Z-score [2]: 0.361
- pull-down binding Z-score [3]: -0.114
- pull-down binding Z-score [4]: 0.663

Sequence: UCAGCUGUGGAAAGUAAGAAAGCUGG [hsa-mir-30c-2]
- pull-down binding Z-score [1]: 1.22
- pull-down binding Z-score (TO-N3 (biotin conjugate)): 1.28
- pull-down binding Z-score [2]: 1.31
- pull-down binding Z-score [3]: 0.97
- pull-down binding Z-score [4]: -0.0598

Sequence: UCACUGUGAACAGUCUCAGUCAGUGA [hsa-mir-183]
- pull-down binding Z-score [1]: -0.331
- pull-down binding Z-score (TO-N3 (biotin conjugate)): -0.919
- pull-down binding Z-score [2]: -0.631
- pull-down binding Z-score [3]: -0.81
- pull-down binding Z-score [4]: -0.0454

Sequence: GAUUCUUGAGGCUUGGAAGAGUAAGGAUC [hsa-mir-6866]
- pull-down binding Z-score [1]: 0.281
- pull-down binding Z-score (TO-N3 (biotin conjugate)): 0.34
- pull-down binding Z-score [2]: 1.07
- pull-down binding Z-score [3]: -0.0976
- pull-down binding Z-score [4]: -0.0295

Sequence: GGGAGGUAUGAUAUCGUGGUUCCU [hsa-mir-3689e]
- pull-down binding Z-score [1]: 0.567
- pull-down binding Z-score (TO-N3 (biotin conjugate)): 0.8
- pull-down binding Z-score [2]: 1.03
- pull-down binding Z-score [3]: 0.555
- pull-down binding Z-score [4]: -0.485

Sequence: AAAUAGUUUCUAUCAAAAUAGUUU [hsa-mir-3668]
- pull-down binding Z-score [1]: -0.362
- pull-down binding Z-score (TO-N3 (biotin conjugate)): -0.931
- pull-down binding Z-score [2]: -1.14
- pull-down binding Z-score [3]: -0.791
- pull-down binding Z-score [4]: -1.13

Sequence: CUGUGGUCUAACCUUUCCCAUCU [hsa-mir-6828]
- pull-down binding Z-score [1]: 0.125
- pull-down binding Z-score (TO-N3 (biotin conjugate)): 0.169
- pull-down binding Z-score [2]: 0.334
- pull-down binding Z-score [3]: -0.163
- pull-down binding Z-score [4]: -1.45

Sequence: UGAAGCCCCGAGAUGCCUCACGUCUUCA [hsa-mir-6802]
- pull-down binding Z-score [1]: -0.123
- pull-down binding Z-score (TO-N3 (biotin conjugate)): 0.243
- pull-down binding Z-score [2]: 0.573
- pull-down binding Z-score [3]: 0.00057
- pull-down binding Z-score [4]: -1.85

Sequence: CAAUCAUGUGUAAUUAGAUAUGAUUG [hsa-mir-514b]
- pull-down binding Z-score [1]: -0.732
- pull-down binding Z-score (TO-N3 (biotin conjugate)): -1.38
- pull-down binding Z-score [2]: -1.33
- pull-down binding Z-score [3]: -1.06
- pull-down binding Z-score [4]: 0.559

Sequence: ACUAAUUUUUCCACUAGUUAGU [hsa-mir-4424]
- pull-down binding Z-score [1]: -0.199
- pull-down binding Z-score (TO-N3 (biotin conjugate)): -0.137
- pull-down binding Z-score [2]: -1.16
- pull-down binding Z-score [3]: 0.228
- pull-down binding Z-score [4]: -0.61

Sequence: GCAUAUAGAGUAUAUGC [hsa-mir-4657]
- pull-down binding Z-score [1]: 0.0599
- pull-down binding Z-score (TO-N3 (biotin conjugate)): -0.435
- pull-down binding Z-score [2]: -0.526
- pull-down binding Z-score [3]: -0.323
- pull-down binding Z-score [4]: 0.625

Sequence: CACUAAUGUGAUUAAUGUUGUUGUG [hsa-mir-3657]
- pull-down binding Z-score [1]: -0.0793
- pull-down binding Z-score (TO-N3 (biotin conjugate)): -0.611
- pull-down binding Z-score [2]: -0.402
- pull-down binding Z-score [3]: -0.405
- pull-down binding Z-score [4]: -1.39

Sequence: UUAACCUAAAAUGAGAAGGCUAA [hsa-mir-633]
- pull-down binding Z-score [1]: -0.223
- pull-down binding Z-score (TO-N3 (biotin conjugate)): -0.212
- pull-down binding Z-score [2]: -0.637
- pull-down binding Z-score [3]: -0.0885
- pull-down binding Z-score [4]: -1.29

Sequence: GUUUAUUUUGUAGC [hsa-mir-4317]
- pull-down binding Z-score [1]: -0.0511
- pull-down binding Z-score (TO-N3 (biotin conjugate)): 0.221
- pull-down binding Z-score [2]: -0.593
- pull-down binding Z-score [3]: 0.299
- pull-down binding Z-score [4]: -1.09

Sequence: GUUCCUGUGAUUUUUC [hsa-mir-198]
- pull-down binding Z-score [1]: -0.212
- pull-down binding Z-score (TO-N3 (biotin conjugate)): -0.29
- pull-down binding Z-score [2]: -0.289
- pull-down binding Z-score [3]: -0.267
- pull-down binding Z-score [4]: -0.819

Sequence: GGAGACCCUAUACAUACCUGUUUCC [hsa-mir-5581]
- pull-down binding Z-score [1]: -0.187
- pull-down binding Z-score (TO-N3 (biotin conjugate)): -0.37
- pull-down binding Z-score [2]: -0.354
- pull-down binding Z-score [3]: -0.408
- pull-down binding Z-score [4]: -2.1

Sequence: AGAAGGCCUAUGGUGAUUUGCAUUCUU [hsa-mir-6875]
- pull-down binding Z-score [1]: 0.226
- pull-down binding Z-score (TO-N3 (biotin conjugate)): -0.072
- pull-down binding Z-score [2]: -0.105
- pull-down binding Z-score [3]: -0.099
- pull-down binding Z-score [4]: 0.997

Sequence: CAGUGAACUAUCAUUGUGCCACUG [hsa-mir-1254-1]
- pull-down binding Z-score [1]: -0.125
- pull-down binding Z-score (TO-N3 (biotin conjugate)): 0.135
- pull-down binding Z-score [2]: -0.0953
- pull-down binding Z-score [3]: 0.06
- pull-down binding Z-score [4]: 0.978

Sequence: UAGUGGAAAGAGCACUG [hsa-mir-378b]
- pull-down binding Z-score [1]: -0.158
- pull-down binding Z-score (TO-N3 (biotin conjugate)): -0.347
- pull-down binding Z-score [2]: -0.274
- pull-down binding Z-score [3]: -0.39
- pull-down binding Z-score [4]: 1.15

Sequence: GGUUUCUUAAAAUGGAAUCU [hsa-mir-1255b-1]
- pull-down binding Z-score [1]: 0.0245
- pull-down binding Z-score (TO-N3 (biotin conjugate)): -0.413
- pull-down binding Z-score [2]: -0.251
- pull-down binding Z-score [3]: -0.382
- pull-down binding Z-score [4]: 0.385

Sequence: UAUGAAGGUAAGCAUUUUUGUA [hsa-mir-3935]
- pull-down binding Z-score [1]: -0.263
- pull-down binding Z-score (TO-N3 (biotin conjugate)): -0.614
- pull-down binding Z-score [2]: -0.419
- pull-down binding Z-score [3]: -0.615
- pull-down binding Z-score [4]: -0.00708

Sequence: GGCUCGUCUGUGUUGCCAAUCGACUC [hsa-mir-1307]
- pull-down binding Z-score [1]: 0.232
- pull-down binding Z-score (TO-N3 (biotin conjugate)): 0.973
- pull-down binding Z-score [2]: 0.866
- pull-down binding Z-score [3]: 0.723
- pull-down binding Z-score [4]: -0.468

Sequence: AUCUCCUUUAGGAAAACCUUCUGUGGGGAGU [hsa-mir-1296]
- pull-down binding Z-score [1]: -0.226
- pull-down binding Z-score (TO-N3 (biotin conjugate)): -0.275
- pull-down binding Z-score [2]: -0.641
- pull-down binding Z-score [3]: -0.0517
- pull-down binding Z-score [4]: -0.272

Sequence: AGGGCAGCUCCCAUGACUGCCUGACCGC [hsa-mir-6880]
- pull-down binding Z-score [1]: 0.266
- pull-down binding Z-score (TO-N3 (biotin conjugate)): 0.663
- pull-down binding Z-score [2]: 1.4
- pull-down binding Z-score [3]: 0.15
- pull-down binding Z-score [4]: -0.549

Sequence: CAGACUGUCUUCCCAAAUAGCCUG [hsa-mir-4772]
- pull-down binding Z-score [1]: -0.219
- pull-down binding Z-score (TO-N3 (biotin conjugate)): -0.0312
- pull-down binding Z-score [2]: -0.223
- pull-down binding Z-score [3]: 0.00537
- pull-down binding Z-score [4]: -1.42

Sequence: GCUGCACUGUCUCCGUCUGCGG [hsa-mir-4519]
- pull-down binding Z-score [1]: 0.0588
- pull-down binding Z-score (TO-N3 (biotin conjugate)): 0.595
- pull-down binding Z-score [2]: 1.43
- pull-down binding Z-score [3]: -0.24
- pull-down binding Z-score [4]: -0.081

Sequence: UAUAACUUGAAGAAUUCAAAUAGUCAUG [hsa-mir-3146]
- pull-down binding Z-score [1]: -0.34
- pull-down binding Z-score (TO-N3 (biotin conjugate)): -1.06
- pull-down binding Z-score [2]: -0.75
- pull-down binding Z-score [3]: -0.804
- pull-down binding Z-score [4]: -0.817

Sequence: CCCUGGGGAGCUGCUGCAGGCAGCAGGUGGGCGGGACGCCAGCAGGCUGUCUAGCUGUUCCCAUGAUGG [hsa-mir-6843]
- pull-down binding Z-score [1]: 0.49
- pull-down binding Z-score (TO-N3 (biotin conjugate)): 1.81
- pull-down binding Z-score [2]: 2.24
- pull-down binding Z-score [3]: 0.919
- pull-down binding Z-score [4]: 2.14
